Assays:
[1] = target: T1, human LGR5-eGFP transgene (human, UniProt O75473 22-907); assay: western blot of HEK293T lysates expressing the human LGR family transgenes
T1 construct: Tested on live or fixed cells and as cell lysates on western blots; also called hLGR5-eGFP; LGR5-GFP
T1 sequence: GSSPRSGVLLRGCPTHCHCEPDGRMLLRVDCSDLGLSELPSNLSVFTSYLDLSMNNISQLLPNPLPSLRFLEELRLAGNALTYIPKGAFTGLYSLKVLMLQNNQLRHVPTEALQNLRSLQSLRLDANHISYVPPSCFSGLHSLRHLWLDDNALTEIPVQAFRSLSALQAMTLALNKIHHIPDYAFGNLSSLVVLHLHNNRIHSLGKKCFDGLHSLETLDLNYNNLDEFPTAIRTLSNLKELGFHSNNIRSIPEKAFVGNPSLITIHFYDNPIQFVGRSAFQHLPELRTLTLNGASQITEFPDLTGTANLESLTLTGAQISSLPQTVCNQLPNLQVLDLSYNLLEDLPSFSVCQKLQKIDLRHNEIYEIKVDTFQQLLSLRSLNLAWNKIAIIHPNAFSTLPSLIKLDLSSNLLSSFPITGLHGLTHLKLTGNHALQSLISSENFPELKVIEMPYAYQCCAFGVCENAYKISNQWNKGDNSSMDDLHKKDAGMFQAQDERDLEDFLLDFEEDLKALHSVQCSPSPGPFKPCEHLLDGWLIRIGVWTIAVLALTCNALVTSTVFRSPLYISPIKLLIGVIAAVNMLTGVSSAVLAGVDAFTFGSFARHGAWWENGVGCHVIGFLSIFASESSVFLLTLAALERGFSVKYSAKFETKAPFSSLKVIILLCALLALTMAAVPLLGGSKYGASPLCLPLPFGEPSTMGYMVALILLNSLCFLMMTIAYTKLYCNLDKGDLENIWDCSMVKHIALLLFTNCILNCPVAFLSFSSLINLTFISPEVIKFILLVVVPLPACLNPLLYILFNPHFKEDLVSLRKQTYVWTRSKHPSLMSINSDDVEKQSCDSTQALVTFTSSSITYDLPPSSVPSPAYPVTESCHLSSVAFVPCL

murine LGR5 transgene [2] = target: T2, murine LGR5 transgene (mouse, UniProt Q9Z1P4 22-907); assay: western blot of lysates of HEK293T cells expressing mLGR5, hLGR5 or cynoLGR5 transgenes, probed with hybridoma clone 3
T2 construct: whole, on cells; Overexpressed in HEK293T cells with N-terminal HA tag, V2 receptor tail and eGFP; also tested as lysate; also called mLGR5; mLGR5-eGFP
T2 sequence (looked up): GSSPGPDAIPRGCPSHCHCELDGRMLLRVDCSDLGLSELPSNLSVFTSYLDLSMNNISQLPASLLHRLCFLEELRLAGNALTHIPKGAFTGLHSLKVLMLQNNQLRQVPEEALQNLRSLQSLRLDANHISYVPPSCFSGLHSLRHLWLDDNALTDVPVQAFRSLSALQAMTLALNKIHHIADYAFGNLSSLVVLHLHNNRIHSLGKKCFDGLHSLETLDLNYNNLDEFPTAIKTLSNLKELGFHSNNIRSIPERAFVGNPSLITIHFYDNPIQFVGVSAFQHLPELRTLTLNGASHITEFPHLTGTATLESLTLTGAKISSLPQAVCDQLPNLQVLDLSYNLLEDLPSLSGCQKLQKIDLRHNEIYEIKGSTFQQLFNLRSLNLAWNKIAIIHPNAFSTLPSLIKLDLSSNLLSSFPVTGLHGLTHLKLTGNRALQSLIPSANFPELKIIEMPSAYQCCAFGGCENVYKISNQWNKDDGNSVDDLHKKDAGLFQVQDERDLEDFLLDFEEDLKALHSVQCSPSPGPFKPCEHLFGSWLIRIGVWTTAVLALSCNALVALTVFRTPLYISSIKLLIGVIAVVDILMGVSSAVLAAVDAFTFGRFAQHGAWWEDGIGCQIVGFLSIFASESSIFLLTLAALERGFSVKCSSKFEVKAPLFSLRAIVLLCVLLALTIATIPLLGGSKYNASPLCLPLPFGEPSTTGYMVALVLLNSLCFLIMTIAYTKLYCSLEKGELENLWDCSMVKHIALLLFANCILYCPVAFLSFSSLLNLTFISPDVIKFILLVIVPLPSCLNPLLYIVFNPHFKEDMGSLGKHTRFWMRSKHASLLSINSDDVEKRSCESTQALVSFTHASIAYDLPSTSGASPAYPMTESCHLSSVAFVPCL

human LGR4 transgene = target: T3, human LGR4 transgene (human, UniProt Q9BXB1 25-951); assay: immunofluorescence of HEK293T cells expressing LGR-eGFP transgenes with α-LGR5v4
T3 construct: whole, on cells; Overexpressed in HEK293T cells with N-terminal HA tag, V2 receptor tail and eGFP; also tested as lysate; also called hLGR4; LGR4-eGFP
Source text: (§1) B. Indirect immune fluorescence analysis of human and murine LGR family expressing HEK293T cells using the a-LGR5v4 antibody (in red), the Alexa488-coupled Phalloidin F-actin probe alongside eGFP fluorescence imaging. In the bottom row of images, LGR5-expressing HEK293T cells were stained with a-LGR5v6. C. H&E staining of tissue sections from a-LGR5v6-ADC (top row) and a-LGR5v4-ADC (bottom row) treated mice.

murine LGR4 transgene = target: T4, murine LGR4 transgene (mouse, UniProt A2ARI4 25-951); assay: as above
T4 construct: whole, on cells; Overexpressed in HEK293T cells with N-terminal HA tag, V2 receptor tail and eGFP; also tested as lysate; also called mLGR4
Source text: as §1

murine LGR5 transgene [3] = target: T2, murine LGR5 transgene; assay: western blot of lysates of HEK293T cells expressing mLGR5, hLGR5 or cynoLGR5 transgenes, probed with α-LGR5v4
Experimental: as §1
(§2) Western blots of HEK293t, LoVo and NALM6 lysates was carried out with 40 μg of protein.

[4] = target: T1, human LGR5-eGFP transgene; assay: as above
Experimental: as §1, §2

[5] = target: T5, endogenous human LGR5 of cancer cell lines (human, UniProt O75473 22-907); assay: flow cytometry of LoVo and NALM6 cells after 60 minutes with fluorescent antibodies, α-HER2 against α-LGR5
T5 construct: Untagged LGR5 as expressed by human LoVo, NALM6, REH cells and CRC organoids; also called LGR5 on LoVo cells; LGR5 on NALM6 cells
T5 sequence: T1 sequence

B1: hybridoma clone 12 (antibody, V domains shown)
VH: EVQLQQSGPELVKPGASVKISCKASGYTFTDYYMNWVKQSHGKSLEWIGDINPNNGGTIYNQKFKGKATLTVDKSSSTAYMELRSLTSEDSAVYYCASGYLFDYWGPGTTLTVSS
VL: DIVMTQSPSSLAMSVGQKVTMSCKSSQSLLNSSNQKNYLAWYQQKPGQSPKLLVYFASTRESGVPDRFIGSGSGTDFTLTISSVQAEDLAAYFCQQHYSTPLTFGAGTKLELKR
notes: Murine antibody; also called antibody 12
Question: Does B1 bind [1]?
Answer: binds

B2: α-LGR5 clone 3 (antibody, mouse IgG1, kappa, V domains shown)
VH: QVQLQQPGAELVKPGASVKLSCKASGYTFTSYWMQWVKQRPGQGLEWIGEIDPSDSYSNYNQKFKGKATLTVDTSSSTAYMQLSSLTSEDSAVYYCARSLSGYVDYWGQGTTLTVSS
VL: DIQMTQTTSSLSASLGDRVTISCRASQDISNRLNWYQQKPDGTVKLLISYRSRLQSGVPSRFSGSGSGTDYSLTISNLEEEDIATYFCQQGNTLPPTFGGGTKLEVRR
notes: Murine monoclonal antibody from hybridoma; also called hybridoma clone 3; antibody 3
Question: Does B2 bind (murine LGR5 transgene [2])?
Answer: no binding

B3: α-LGR5 variant 4 (antibody, human IgG1, kappa, V domains shown)
VH: QVQLVQSGAEVKKPGASVKVSCKASGYTFTNYWMQWVRQAPGQGLEWIGEIDPSDSYTNYNQKFQGRVTLTVDTSTSTAYMELSSLRSEDTAVYYCARSLSGYVDYWGQGTTVTVSS
VL: EIVMTQSPATLSLSPGERATLSCRASQDISNRLNWYQQKPGQAVRLLISYRSRRHTGIPARFSGSGSGTDYTLTISSLEPEDFAVYYCQQGNSLPPTFGGGTKLEIKR
notes: Humanized antibody; also called α-LGR5v4; clone 2.4
Question: Does B3 bind (human LGR4 transgene)?
Answer: no binding

Question: Does B3 bind (murine LGR4 transgene)?
Answer: no binding

Question: Does B3 bind (murine LGR5 transgene [3])?
Answer: no binding

Question: Does B3 bind [4]?
Answer: binds

Question: Does B3 bind [5]?
Answer: binds
